Measurements reported in patent US6147204, “Nucleic acid ligand complexes” (NeXstar Pharmaceuticals, Inc.).

Assays:
[1] = biological target: T1, bFGF (basic fibroblast growth factor) (UniProt P09038 P09038:143-288); experiment: binding affinity stated as 1 nM; conditions: blunt-ended hairpin, Tm 68 C
[2] = biological target: T1, bFGF (basic fibroblast growth factor); experiment: 5'-32P binding assay; same affinity as unconjugated 225T3; conditions: label: 5'-32P; hairpin
Description: Preparation and Functional Properties of PEG Conjugated and Cholesterol-Derivatized Nucleic Acid Ligands A PEG 3400 conjugate of a Nucleic Acid Ligand retains the binding affinity of the non-conjugated molecule The ability of a bFGF ligand/PEG-3400 conjugate to bind bFGF was tested. Molecule 225T3 (SEQ ID NO: 10), a high affinity DNA ligand to bFGF, was chosen for conjugation with PEG via a primary amine-NHS coupling reaction. […] Ligand 225T3 was modified with a 3'-amino-modifier C7 CPG (Glen Research, Sterling, Va.) using standard DNA synthesis methods and will be referred to as 225T3N (SEQ ID NO:11). 225T3N was reacted with the N-hydroxysuccinimidyl (NHS) active ester of PEG (avg. MW 3400) in 20% (v/v) […] 80% (v/v) 0.5 M sodium bicarbonate buffered at pH 8.5. The resulting conjugate, 225T3N-PEG-3400 (SEQ ID NO: 14), was purified from the free DNA on a 12% polyacrylimide/7 M urea gel. The conjugate was 5' end-labeled with ^32P and a binding assay was performed.

[3] = biological target: T1, bFGF (basic fibroblast growth factor); experiment: 5'-32P binding assay; identical to 225T3; conditions: label: 5'-32P; hairpin
[4] = biological target: T2, VEGF (vascular endothelial growth factor) (UniProt P15692-4 P15692-4:27-191); experiment: competition; ED50, competition ELISA against biotin-labeled VEGF ligand on immobilized VEGF; printed 10^-9 M; conditions: chain copies: 2
T2 sequence (P15692 other isoform, or with tags, fused parts or gaps): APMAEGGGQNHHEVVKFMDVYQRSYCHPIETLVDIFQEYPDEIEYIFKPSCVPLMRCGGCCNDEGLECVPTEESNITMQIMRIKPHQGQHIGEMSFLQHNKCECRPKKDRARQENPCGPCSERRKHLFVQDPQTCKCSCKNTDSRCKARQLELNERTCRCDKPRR

[5] = biological target: T2, VEGF (vascular endothelial growth …); experiment: cell_activity; inhibition of HUVEC proliferation with 10 ng/ml VEGF; KS cells (KSY-1) IC50 about 100 nM; conditions: chain copies: 2
Description: The effects of NX278-liposome, scNX278-liposome and NX213 on the proliferation of human umbilical vein endothelial cells (HUVEC) and Kaposi's Sarcoma (KS) cells in tissue culture were examined. HUVECs were grown in the presence of VEGF (10 ng/ml) in IMDM:Ham's F12 (1:1) medium containing 10% fetal calf serum (FCS) and heparin (45 μg/ml). Cells were plated in 24-well gelatin-coated plates at a density of 20,000 cells per well on day zero and treated with the above ligands at concentrations between 0.1 nM to 1 μM on days 1, 2, and 3 (replacing the media along with the ligands). Cell count was performed on day 4. KS cell line KSY-1 was plated in 24-well gelatin coated plates at a density of 7,500–10,000 cells per well on day zero in medium containing RPMI 1640 supplemented with 2% FCS, L-glutamine, penicillin and streptomycin. Nucleic Acid Ligands were added at concentrations between 0.1 nM to 1 μM in fresh medium on day 1, 2, and 3 and the cell count was performed on day 4.

[6] = biological target: T2, VEGF (vascular endothelial growth …); experiment: competition; apparent ED50, competition ELISA; printed 10^-7 M; conditions: chain copies: 2
Description: (§1) NX278-Liposome Complex was prepared by incubating NX-278 (1 mg) (FIG. 1N; SEQ ID NO: 19) with of a mixture of DSPC:cholesterol (50 mg) in 10 mM phosphate (pH 7.4) buffer containing 9% sucrose and sonicated for 15–30 min using a probe-type sonicator until opalescent solution was obtained. The control Nucleic Acid Ligand-Liposome Complex containing a sequence scrambled analog of ligand NX-278 (scNX278) (FIG. 1W; SEQ ID NO:28) was prepared in the same manner. The size of Liposome particles (typically […]), determined in a particle analyzer (Leeds & Northrup Model Microtrack UPA 150, Horsham, Pa.) was similar to those obtained in the absence of the Nucleic Acid Ligand.

[7] = biological target: T2, VEGF (vascular endothelial growth …); experiment: competition; not an effective competitor up to 2 uM; conditions: chain copies: 2
Description: as §1

[8] = biological target: T2, VEGF (vascular endothelial growth …); experiment: 1 uM not inhibitory in guinea pig Miles assay; conditions: chain copies: 2
Text: The ability of NX278-liposome to inhibit the vascular permeability activity of VEGF in vivo was examined.

T1 sequence (P09038 143-288, one chain of several): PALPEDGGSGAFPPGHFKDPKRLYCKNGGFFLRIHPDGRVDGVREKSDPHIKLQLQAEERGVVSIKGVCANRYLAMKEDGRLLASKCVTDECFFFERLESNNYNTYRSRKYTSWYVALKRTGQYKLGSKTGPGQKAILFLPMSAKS

B1: 225T3 (ssDNA)
DNA: GCGGGGCTACGTACCGGGGCTTTGTAAAACCCCGC
Kd [1]: 1 nM

B2: 225T3N-PEG-3400 (ssDNA)
DNA: GCGGGGCTACGTACCGGGGCTTTGTAAAACCCCGC
modifications: 3'-amino modifier C7 coupled to PEG (avg. MW 3400)
Kd [2]: 1 nM

B3: 225T3-Cholesterol (ssDNA)
DNA: GCGGGGCTACGTACCGGGGCTTTGTAAAACCCCGC
modifications: 3'-tetraethyleneglycol cholesterol
Kd [3]: 1 nM

B4: NX213 (mixed)
mixed: TTTTACCCUGAUGGUAGACGCCGGGGUGTTTTT
EC50 [4]: ~1 nM

B5: NX278-liposome (mixed)
mixed: TTTTACCCUGAUGGUAGACGCCGGGGUGTTTTT
modifications: 5'-dialkylglycerol (DAG), embedded in DSPC:cholesterol liposome
IC50 [5]: ~300 nM
EC50 [6]: ~100 nM

B6: scNX278-liposome (mixed)
mixed: TTTTGUCGGUACGGAGUGGACCGUCACGTTTTT
modifications: dialkylglycerol (DAG), embedded in DSPC:cholesterol liposome
EC50 [7]: > 2000 nM
binding result [8]: no binding
